Consider 21 sequences from the DeepSol protein solubility set.

The nature of the data set: soluble on expression in E. coli; label from the status in PepcDB or PDB records.
As to “GMSWEKSGKEGSLLRWYDVMEAERYEYTVGPAGEQFFNGLKQNKIIGSKCSKCGRIFVPARSYCEHCFVKIENYVEINKDEAYVDSYTIIYNDDEGNKLAQPVYIALIRFPNIEGGLLCYAEGNVKVGAKAKILSFQWPLRVKVD”, the “soluble on expression in E. coli” value was “soluble”.
Then “MSDWNPSLYLHFAAERSRPAVELLARVPLENVDYVADLGCGPGNSTALLHQRWPAARITGIDSSPAMIAEARSALPDCQFVEADIRNWQPEQALDLIFANASLQWLPDHYELFPHLVSLLNPQGVLAVQMPDNWLEPTHVLMREVAWEQNYPDRGRESLAGVHAYYDILSEAGCEVDIWRTTYYHQMPSHQAIIDWVTATGLRPWLQDLTESEQQLFLTRYHQMLKEQYPLQENGQILLAFPRLFIVARRTE”, with “soluble”; and “MNDTSFENCIKCTVCTTACPVSRVNPGYPGPKQAGPDGERLRLKDGALYDEALKYCINCKRCEVACPSDVKIGDIIQRARAKYDTTRPSLRNFVLSHTDLMGSVSTPFAPIVNTATSLKPVRQLLDAALKIDHRRTLPKYSFGTFRRWYRSIAAQQAQYKDQVAFFHGCFVNYNHPQLGKDLIKVLNAMGTGVQLLSKEKCCGVPLIANGFTDKARKQAITNVESIREAVGVKGIPVIATSSTCTFALRDEYPEVLNVDNKGLRDHIELATRWLWRKLDEGKTLPLKPLPLKVVYHTPCHMEKMGWTLYTLELLRNIPGLELTVLDSQCCGIAGTYGFKKENYPTSQAIGAPLFRQIEESGADLVVTDCETCKWQIEMSTSLRCEHPITLLAQALA”, with “not soluble”; and “LYFQGMSLEPFGARLSRAMDDRGPLCVGIDPHASLLADWGLSDDVAGLERFSRTVVEALGEHVAVFKPQSAFFERFGSRGVAVLEKTVAEARAAGALVVMDAKRGDIGSTMAAYAEAFLRKDSPLFSDALTVSPYLGYGSLRPAVELARESGAGLFVLALTSNPEGGEVQHAVRTDGRDVAATMLAHLAAENAGEEPLGSFGAVVGATLGDLSSYDLDINGPLLAPGIGAQGAAPADLPGVFGAAVRNVVPNVSRGVLRHGPDVRALRTAADRFAEEIRAAVAA”, with “soluble”.
As for “MSSGRNISCRMATRSCFFRLLQGVEMLRIADKTFDSHLFTGTGKFASSQLMVEAIRASGSQLVTLAMKRVDLRQHNDAILEPLIAAGVTLLPNTSGAKTAEEAIFAAHLAREALGTNWLKLEIHPDARWLLPDPIETLKAAETLVQQGFVVLPYCGADPVLCKRLEEVGCAAVMPLGAPIGSNQGLETRAMLEIIIQQATVPVVVDAGIGVPSHAAQALEMGADAVLVNTAIAVADDPVNMAKAFRLAVEAGLLARQSGPGSRSYFAHATSPLTGFLEASA”, the “soluble on expression in E. coli” value is recorded as “soluble”.
The value for “ISDPVELLKRAEKKGVPSSGFMKLFSGSDSYKFEEAADLCVQAATIYRLRKELNLAGDSFLKAADYQKKAGNEDEAGNTYVEAYKCFKSGGNSVNAVDSLENAIQIFTHRGQFRRGANFKFELGEILENDLHDYAKAIDCYELAGEWYAQDQSVALSNKCFIKCADLKALDGQYIEASDIYSKLIKSSMGNRLSQWSLKDYFLKKGLCQLAATDAVAAARTLQEGQSEDPNFADSRESNFLKSLIDAVNEGDSEQLSEHCKEFDNFMRLDKWKITILNKIKESIQQQEDDLL” was “soluble”.
The value for “MELQLAIDLLNKEEAAKLAQKVEEYVDIVEIGTPIVINEGLPAVQHLNENINNAKVLADLKIMDAADYEVSQAVKYGADIVTILGVAEDASIKAAVEEAHKHGKALLVDMIAVQNLEQRAKELDEMGADYIAVHTGYDLQAEGKSPLDSLRTVKSVIKNSKVAVAGGIKPDTIKDIVAEDPDLVIVGGGIANADDPVEAAKQCRVAIEG” was “not soluble”; that for “MSKTDVKKSREASGILTLQVNLRERRNFLNLMQNKLFSWKIRFSAIKGKCSQKSKYFRRSRSEDCYVEADLKILSRTRRSRKLPGTVPDFLGKQLIGISSSVVSRVSRSCR” was “soluble”.
As for “MSDATLHNTTQDPDDFAVQIADQVESFLVAVTEVAKGDEPDSAVPFLLLEVSQLLLAGGRLGAHEDIVPDERYEPDMGPEPDVDELRERLATMLDPVDVYSEVFDPYEPRKAPVPARISDDLADVIADLRHGMAHYRAGRTTEALWWWQFSYFSNWGSTASATLRALQSLVAHVRLNQPLEELDGLDTDQDLSEDALAEEAGRVMASEIAGPLGLRTVRLEHHHHHH”, the “soluble on expression in E. coli” value is “soluble”.
“QQLSMELESARAFNASVLANVAEGILVVDEAGNISFANPAICQLLNASVDQLRGTQVLDYVIEPQVSSWLESGFYQHYRKADTYRVHDAILRTAQGSQLPVALSCAALPAEQKAMVLTVLDMS”: the “soluble on expression in E. coli” value is “not soluble”.
For the sequence “MGSDKIHHHHHHAKESEQKVTIDSAKHEKHTKDKEENNSANTVFFDKINDLLVASVKEFEGTVGISYLDLETGEQRSVNGQHEFYTASTIKVPLTMLVADTVASGQKKWTDLIPYNAEEDYEEGTGIIAYNIQPEYPLKTLQEYAITYSDNIAKNMLYDTLGGDAKAKREMYQRYLHKTPSIEEPQFSSEDALVILQKLYTEKATKPDYQAIYDSMKQSVFHERMETPTTQGKVAHKIGSYDEFIHDMGILETPHPFALAIFTKGPDNAKSAAFIASVTDKLWQLQVSEYPNQ”, the “soluble on expression in E. coli” value was “not soluble”.
Consider “MHSITTALENLTRQLSQEIPATPGLCVFDAPFPLNDAFDALSWLASQSSFPQFYWQQRNGDEEAAVLGAITVFSSLDLAQRFLRQHAQPDLRIWGLNAFEPKEGYLLLPRLEWRRSGGTATLRLHLHSDVSLRDDARQAKAFLASLVGIKPVPALRLSLTSEQHWPDKDGWVKLIQQATHTIAQEAFDKVVLARATDLQFSRPVNAAAMMASSRRLNLNCYHFFMAFSADTAFLGSSPERLWRRRETALRTEALAGTVANHPDNHKAWQLGEWLMKDDKNQRENMLVVEDICQRLQNCTHSLDVLPPQVLRLRKVQHLRRCIWTALNQADDTLCLHQLQPTAAVAGIPREPARCFIEQHEPFEREWYAGSAGYLSTRQSEFCVTLRSAKVTANVVRLYAGAGIVRGSDPEQEWQEIDNKAAGLRTLLQMDA”, for which the “soluble on expression in E. coli” value was “not soluble”.
Consider “MTKLALFVRLEAKPGQEAALADFLASALPLANAESGTTAWFALKFGPSTFGVFDAFADEAGRQAHLNGQIAAALMANAATLLSSPPNIEKVELLAAKLPA”, for which the “soluble on expression in E. coli” value was “soluble”.
Regarding “MICLDCDDLFDTWRLQARWLLSHEIDPSQVSWKSPDAADLFGSEEQYPEQSGPFQARVPLELLQLLQSTSRYRGEQRWSLLYEVLWRVTHGDRTAMMAGDKLGSELHRRLKAVRREAHHLHAFLRFVALPPADNDAAIMRPQYVAWHEPAHDILHSASEHFIGRMGQHRWMIATPQDGVYYDGKQLIHERRCPEAWQTMARQVEDPHGELWLTYYSHIFNPARLNPKVMEGHFPSRFWKNLPE”, the “soluble on expression in E. coli” value is “not soluble”.
As to “KYRHEYYQKPEEVVVTVFAKGIPKQNVNIDFGEQILSVVIEVPGEDAYYLQPRLFGKIIPDKCKYEVLSTKIEICLAKADIITWASLEHG”, the “soluble on expression in E. coli” value was “soluble”.
Then “MGSDKIHHHHHHMSLSYLQTSLDRIDAAARDDVIEICINPDGSCWGEFQGDHFMRKLDQALTATEVKDLGNQIASSANTTMSKDRPIVSVSITYKGRPIRAQVITPPAVLSAMSISLRFFSSLPLDGIALDFLYGKERKLEKLRLKKTRELREVVAAGVIDDALAFCVDNKLNMIVSGGTSTGKTVAARKILSHVPADERIVTIEEAAELLPTQPNAVTLIANRDAEFQTADVLLTATLRMRPDRIILGEVRGKEAMTFLEAINTGHGGSMTTLHAETPQLAVQRLAIAALKTEIPMTYADMIQYIENSIDVIIQAGRHDGRRGITEFYLPGATEIGVSQ”, with “not soluble”; and “MSLTIKEIADKVNLSPTTVSNVIHGRKGKVSPDNYKKISRALEESKYVSNMGGRLLGRHGSKIIAVILNYERRSEMNVVSDPFYNQIVGFLEEEIRKKSYFMMLYTSGSVTESLRLATAWDIEGLIVLGSHPDDAKNFIKQQKRPVAFIDTYVDKESMTDDFINVGLQDFKGGYQITNYLIGLGHRRIGFFADGNQLLGVDQQRFAGFKKALSEADINLENPGFFGLDYRTNQRHIFLKKFSETKLKDYTALVFTSDFLAVDAINVFLDNGFKVPEDISITGFDHNIFSEQCRPKLTTIGQNVQKKAVLAVDFLTERIQSKQAIKKINLLLDAELIVQDSTAREGHHHHHH”, with “soluble”.
Turning to “MGITVMARIDNYEQRFGGIGRLYTPDSLARLRQAHICVIGIGGVGSWVVEALARSGIGELTLIDMDDICVTNINRQLPAMSGTIGKLKTEVMSERVKLINPECTVNIIDDFISPENQSDYLNRGYDYVIDAIDNVKTKASLIAYCKRNKINVITIGGAGGQTDPTQIQIADLSKTIQDPLLAKVRSVLRKDYNFSQNPKRKFSIDAVFSTQPLIFPQMTEGCSTSATMNCANGFGAATMITATFGFFAVSRVIDKLLKKKSLEHHHHHH”, the “soluble on expression in E. coli” value is “not soluble”.
Take “MTDSQSTQMGRGRHAKRNKSTASVGSKKNRTQSTASGKFQPSDGFTTFIVAVSRLGKQGQEFTWHDLRKVYHKETQRQLTAEELNAIFSSKNLTKREIFELPKVKRFMTSMDGSMMCRFRLIADPQEVYDDDLPPLMSTSVETDVITEDTSSDHSQAVSPSSGNPIAISTDCDDKAAGPTSDLSKSDNSPSQRSLAQQSSMTDDEGWVSGKDVRSENSSPVEDKDEVDGSKMEMEDDVFEEDQRIAAESDQVDSAMVADVIIVEEAKVEKLFKAQEIVAPIVLTESIDAAFEAVIQSVSHADATLSMTQNASEEAKVHATPPLPAERKTMVSAELANGKPIKHLIEKFDAGVNFAEHKPKSIYAQVLEEIGGSAPRVDEVFSASKKEEHAETEVTNVIFRSTSTHSSIIANGKEQLAEFVAEQEARQKVTTPNPVKEETENAFCAKEQSSMSSLDREYFASKTKLNEDLFAELGVKDTDGFQLKTVDSNGSGPGSSEIITVIETPLKDDHRKRADSVESDADVPYSLCSEDEAEPMTMIDKSMKVSQSAEQLSPVKEEQKAKTVVVNVELDGNRADPTIKDRIAALQAIVSKQHVPIAKVDSVDDDVRILSRTEELQHMALEAKPSPQALGALRRRHVRFMRGCCVVQ”: the “soluble on expression in E. coli” value is recorded as “soluble”.
For the sequence “GPGSMTYYRERRKTLTVQGLKDAVQESLAKYLYDNAIFCAERLYALAPTHESLHTVAHCYVTSGDAGTAYRILRAHYPYLLSATPSFATTNSSTSGNGTGVGSNTAADAAARWDCQYLLGVTCGMTQRYMEGESFLEELERQQSSSEVLYWLGVCRRHLRRGYAEEAFAKSAVLDPLNFVAFENHVKMTRTPREEVRCIYTDAAPGVGAEDAVRRSSMSGMGIGGVGGAHRHVKREALRLYLSPFASVTFLQWTYRCKEARALLQHESFPERDSGWAFGALAMAYFHDGDVENSTVEFANMRRVAPWRLADPALVYYSTALWQRKELGTLGSLSQTLINEMPASPITLCVVANNYSLAKESKESLCMLNRAIQVDHDFAYAHTLRGYELLYLDLKSEAVDAFHEAILIDGGHYNAYAGLGELYFRSEDLQKARNYFQQAISINPLPTIMNRYAATYHRRDATRESLNEALRIYESAIRRHPTNLGARHQRAEVLIRLGRFHEAHDELLGMTKECPDEAMLYVTLAKCVHLMGLTGQAVQYYHTAMDLDPRRVGYIKSCLERLAMGKPDVAEANA”, the “soluble on expression in E. coli” value is “not soluble”.
Turning to “MAGLKYEDAGVNIEAGNQAVERMKQHVKKTFTQDVLTGLGSFGSLYSLKNIINNYDDPVLVQSIDGVGTKTKVAVMCGKFENLGYDLFSAATNDIVVMGAKPITFLDYVAHDKLDPAIMEELVKGMSKACAECGVSLVGGETAEMPGVYQAGEIDMVGVITGIVDRKRIINGENIKEGDIVFGLSSSGLHTNGYSFARKLFFDVAGNKHTDTYPELEGKTIGDVLLEPHINYTNIIHDFLDNGVDIKGMAHITGGGFIENIPRVLPQGLGAQIDKDSFATPAIFKLMQRIGDISEFEMYRSFNMGIGMTIIASQDQFDKMQELAKKHTNTKLYQIGKITNSGKVEII”, the “soluble on expression in E. coli” value is recorded as “soluble”.
